Experimental data taken from patent US20120045395, “MicroRNAs In Idiopathic Pulmonary Fibrosis” (UNIVERSITY OF PITTSBURGH - OF THE COMMONWEALTH SYSTEM OF …, published 2012).

Target: SMAD3 (UniProt P84022 P84022:1-425)
Assay: EMSA; 5 mM MgCl2, 200 mM NaCl, pH 7.6, poly(dI-dC), room temperature; band diminished by unlabeled competitor; probe described as upstream of the predicted site …
Conditions: tags: full length, Santa Cruz Biotechnology; label: 5'-Cy5
Protocol: Electrophoretic Mobility Shift Assay (EMSA): Cultured A549 cells at 60-70% confluence were treated with 2 ng/mL recombinant human TGFβ₁ (R&D Systems) for 60 minutes. Nuclear proteins were isolated using a standard rapid micropreparation technique described at Andrews N. C. and Faller D. V. Nucleic acids research (1991); 19:2499). The supernatant was reserved and snap frozen in liquid nitrogen as the nuclear protein fraction. Nuclear extracts and recombinant full length SMAD3 protein (Santa Cruz Biotechnology, Santa Cruz, Calif.) were incubated with 5′-end Cyanine-5 labeled probe and/or non-labeled competitor oligonucleotide for 20 minutes at room temperature in a binding buffer consisting of 20% glycerol, 5 mM MgCl₂, 2.5 mM EDTA, 25 mM DTT, 200 mM NaCl, 50 mM Tris HCl pH 7.6, and 0.25 mg/mL poly(dI-dC). The complementary oligonucleotides (5′-[…]-3′ (SEQ ID NO: 3), 5′-[…]-3′ (SEQ ID NO: 4)) were synthesized by Integrated DNA Technologies (Coralville, Iowa), and consisted of a sequence upstream of the predicted SMAD3/let7d binding site (GGCTGAGTA (SEQ ID NO:5)). […] The protein/DNA complexes were run on a 6% native polyacrylamide gel and visualized on a Typhoon imaging and documentation system using Cyanine-5 dye excitation and fluorescence settings.

Sequence of SMAD3 (P84022 whole entry, one chain of several): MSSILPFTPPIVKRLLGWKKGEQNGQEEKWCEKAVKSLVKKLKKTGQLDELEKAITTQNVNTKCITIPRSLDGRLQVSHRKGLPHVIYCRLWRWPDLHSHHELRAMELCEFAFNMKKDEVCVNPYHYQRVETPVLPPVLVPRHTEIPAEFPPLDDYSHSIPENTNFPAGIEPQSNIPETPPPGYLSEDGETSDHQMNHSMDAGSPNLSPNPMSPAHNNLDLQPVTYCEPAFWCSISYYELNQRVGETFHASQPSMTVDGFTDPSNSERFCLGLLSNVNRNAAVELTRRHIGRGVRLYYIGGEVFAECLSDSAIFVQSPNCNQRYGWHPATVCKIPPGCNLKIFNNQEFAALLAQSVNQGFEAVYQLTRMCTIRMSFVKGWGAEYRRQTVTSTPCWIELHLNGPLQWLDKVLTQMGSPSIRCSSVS

B1: let-7d promoter EMSA probe (dsDNA)
DNA 1: GATAATTAAATGTTAAAAGTCAGC
DNA 2: GCTGACTTTTAACATTTAATTATC
B1: binds.
